{"source": "patent US20020009436A1", "about": "“Methods and compositions for inhibiting adhesion by microorganisms” (priority 1999, published 2002)", "molecules": {"B1": {"name": "asparaginase: enzyme that catalyzes hydrolysis of the side chain amide group of asparagine to a carboxyl group; E. coli asparaginase (protein, UniProt P00805 23-348, looked up)", "L-asparaginase 2": "LPNITILATGGTIAGGGDSATKSNYTVGKVGVENLVNAVPQLKDIANVKGEQVVNIGSQDMNDNVWLTLAKKINTDCDKTDGFVITHGTDTMEETAYFLDLTVKCDKPVVMVGAMRPSTSMSADGPFNLYNAVVTAADKASANRGVLVVMNDTVLDGRDVTKTNTTDVATFKSVNYGPLGYIHNGKIDYQRTPARKHTSDTPFDVSKLNELPKVGIVYNYANASDLPAKALVDAGYDGIVSAGVGNGNLYKSVFDTLATAAKTGTAVVRSSRVPTGATTQDAEVDDAKYGFVASGTLNPQKARVLLQLALTQTKDPQQIQQIFNQY"}}, "key": {"[1]": {"tested_on": "S. sobrinus glucosyltransferase", "assay": "Purified S. sobrinus glucosyltransferase treated with asparaginase", "type": "biochemical", "experimental": "Glucosyltransferase activity was detected as described in the art, with some modifications described hereinbelow. Protein samples were mixed with electrophoresis sample buffer and incubated for 1 to 4 h at 37° C. before the gel was run. Nonfixed gels were incubated in 50 mM sodium acetate (pH 5.5) containing 1% vol/vol Triton X-100, 2 % (wt/vol) sucrose, and 0.07% (wt/vol) NaN3 at 37° C. for 24 h. Gels were also incubated in the same buffer with glucan T2000 (2 to 4 mg/ml) or fluorescein isothiocyanate-conjugated glucan T-10 (2 mg/ml) to detect both glucosyltransferases and glucan binding proteins (GBPs). After incubation, the gels were fixed for 30 min in 75% ethanol and rocked on a shaker for 30 min with 0.7% periodic acid in 5% acetic acid. The gels were then shaken for 1 h in 0.2% (wt/vol) sodium metabisulfite in 5% acetic acid. After two additional treatments in sodium metabisulfate and acetic acid, the gels were placed in Schiff's reagent for 0.5 to 1 h. Finally the gels were washed extensively in 45% methanol-45% acetic acid-10% H2O for destaining. In some experiments, purified protein was treated with 100 μg/ml polyphenol oxidase for 1 h, or with asparaginase, before loading on the gel."}, "Klebsiella pneumoniae": {"tested_on": "Klebsiella pneumoniae", "assay": "Growth inhibition of Klebsiella pneumoniae", "type": "cell-based"}, "P. gingivalis": {"tested_on": "P. gingivalis", "assay": "Hemagglutination assay of periodontopathogens, P. gingivalis", "type": "cell-based, Porphyromonas gingivalis", "design": "key: + Hemagglutination; − No hemagglutination", "conditions": "sheep blood, polyphenol oxidase 90 U/ml or asparaginase 20 U/ml, 90 min", "experimental": "The hemagglutinations were carried out in 96 microwell (Nunc) plates in which 50 μl of 1% suspension of sheep blood and 50 μl of serially diluted cells suspension in phosphate buffered (10 mM Na2HPO4, 10 mM KH2PO4, 150 mM NaCl, 3 mM KCl) were added. The cells were adjusted at 1.4 OD at 540 nm. All the strains were treated in NaCl-free buffer with polyphenol oxidase (90 U/ml) or asparaginase (20 U/ml) for 90 min at 37° C. before hemagglutination."}, "[2]": {"tested_on": "E. coli / urinary epithelial cells (UECs)", "assay": "Binding of E. coli to urinary epithelial cells, microscopy (Experiment 1)", "type": "cell-based", "conditions": "FIG. 4; greater with increasing concentration or duration of incubation", "experimental": "Urinary epithelial cells (UEC) were obtained by a method known to those of skill in the art. Briefly, the cells were obtained by centrifugation (5000×g) of 200 ml of clean-catch-collected first morning male urine. Cells were washed 3× in PBS and suspended to a density of 1×10^9 cells/ml in an end-over-end apparatus. After 30 minutes mixtures were collected on polycarbonate filters (pore size=10 μm) and washed with three volumes of cold PBS. Filters were pressed onto glass microscope slides which are then heat-fixed and stained with crystal violet for 2 min. Slides were examined at 1000× with phase-contrast microscopy. For each experimental condition 200 UEC's are examined. Adherent bacteria were quantitated as described in previous Examples."}, "[3]": {"tested_on": "Type 1-fimbriated E. coli", "assay": "Flow cytometric adhesion of type 1-fimbriated E. coli to UECs", "type": "cell-based", "description": "Methods for handling polyphenol oxidase and asparaginase and for observing adhesion by microorganisms were generally as described in the previous Examples with variations to adapt these methods to epithelial cells.\nThe bacteria were labeled intracellularly with the fluorescein dye CFDA-SE. Median fluorescence intensity of the UECs was taken as a measure of the number of bacteria attached to them. In the Figures below, median fluorescence is converted to % adhesion using control conditions (UEC+untreated bacteria) as 100%."}, "[4]": {"tested_on": "endogenous bacteria attached to UECs", "assay": "Removal of endogenous biota from sloughed urinary epithelial cells", "type": "cell-based", "conditions": "for Percent UECs with ≧30 Bacteria Attached: PBS 30", "experimental": "Sloughed epithelial cells were incubated with the enzymes, collected by filtration, transferred to microscope slides and stained with crystal violet. Then 50 epithelial cells from each slide were randomly assessed for the numbers of bacteria associated with them and placed into one of four categories: Cells with 0-9, 10-29, 30-49, or >50 bacteria associated with them."}, "[5]": {"tested_on": "S. epidermidis (clinical isolate)", "assay": "Collagen binding assay, S. epidermidis", "type": "cell-based", "conditions": "untreated 0.09", "experimental": "Wells were filled with 1 mg/ml soluble collagen overnight at 4° C. Control wells were coated with 1% BSA. The protein solutions were removed and permitted to stand at 37° C. for 1 h. A solution of 2% BSA was added to the wells to block unoccupied sites and prevent non-specific binding of bacteria. After 30 min, BSA was removed and the wells were washed once with distilled water. Finally, the bacterial suspensions (100 μl, OD 1.4) were added to the plates and incubated at 37° C. for 2 h. Unbound bacteria were removed by washing the wells three times with PBS containing 0.01% Tween 20. The wells were dried at 37° C. for 30 min and stained with crystal violet for 15 min. Wells were rinsed with distilled water and dried at 37° C. for 2 h. After adding 100 μl of 95% (v/v) ethanol to each well the plates were then shaken to release the stain and a reading of 550 nm was carried out."}, "S. pyogenes": {"tested_on": "S. pyogenes", "assay": "Fibronectin binding assay, S. pyogenes", "type": "cell-based", "conditions": "polyphenol oxidase 80 U/ml, asparaginase 20 U/ml", "experimental": "(§1) Wells were filled with human serum fibronectin (50 μg/ml) diluted in carbonate buffer (50 mM Na2CO3—NaHCO3, pH 9.5 overnight). Controls were coated with 1% BSA. The wells were washed three times with PBS and incubated with PBS-Tween (0.5% Tween 20 and 0.05% NaN3) 1 h at 37° C. After attachment, the wells were washed three times with PBS-Tween and allowed to dry. Subsequent assays were as described hereinabove."}, "[6]": {"tested_on": "S. epidermidis (clinical isolate)", "assay": "Fibronectin binding assay, S. epidermidis", "type": "cell-based", "conditions": "polyphenol oxidase 80 U/ml, asparaginase 20 U/ml, untreated 0.17", "experimental": "as §1"}, "S. sobrinus 6715": {"tested_on": "S. sobrinus 6715", "assay": "Disc-diffusion growth assay, S. sobrinus", "conditions": "500 μg/ml and 1.0 mg/ml, 18 h", "quoted_text": "Standard disc-diffusion assays were performed with 500 μg/ml and 1.0 mg/ml of polyphenol oxidase. Duplicate series of ten-fold dilutions (to 10^−8) of late exponential phase cultures of S. sobrinus were made in PBS. Eighty μl of each concentration of polyphenol oxidase was pipetted onto 13 mm sterile filter paper discs. The discs were applied to the center of agar plates previously inoculated with lawns of S. sobrinus. Plates were incubated for 18 h and examined visually for any effect of polyphenol oxidase on growth of the bacteria.\nDuplicate series of ten-fold dilutions (to 10^−8) of late exponential phase cultures of S. sobrinus were made in PBS. Eighty , μl of each concentration of asparaginase was pipetted onto 13 mm sterile filter paper discs. The discs were applied to the center of agar plates previously inoculated with lawns of S. sobrinus. Plates were incubated for 18 h and examined visually for any effect of asparaginase on growth of the bacteria."}, "[7]": {"tested_on": "P. gingivalis W50 (adhesin) / A. naeslundii T14V (receptor)", "assay": "Coaggregation P. gingivalis W50 / A. naeslundii T14V", "conditions": "P. gingivalis W50 (adhesin) enzyme treated; polyphenol oxidase 90 U/ml, asparaginase 20 U/ml", "quoted_text": "S. sanguis 10556, A. naeslundii strains 12104 and T14V and E. coli were grown static cultures in Todd-Hewitt broth (BBL Microbiology Systems, Cockeysville, Md.). P. gingivalis W50, A. actinomycetemcomitans and C. ochracea were grown in brain heart infusion broth (BBL). F. nucleatum 22586 and P. intermedia 25611 were grown in modified Schaedler broth (BBL). All oral species except S. sanguis 10556 were incubated at 37° C. as static cultures under an anaerobic atmosphere containing H2, CO2 and N2(10:10:80) with GasPaks (BBL). S. sanguis was incubated at 37° C. as static cultures in 5% CO2.\nBacteria were harvested in the mid to late exponential growth phase by centrifugation (10,000×g for 10 min at 4° C.). The cells were washed twice in coaggregation buffer (30 mM 3-[N-morpholino]propanesulfonic acid (MOPS), pH 7.0) and adjusted to an optical density of 0.6-0.8 at 540 nm (1-cm path). […]\nCoaggregation was assessed by turbidity changes. Following mixing of the cells for 10 s on a Vortex mixer, absorbance readings were made every 30 min. The percentage of coaggregation was calculated from the following formula: Percent coaggregation=[OD540(A)+OD540(B)−OD540(A+B)]/(OD540(A)+OD540(B)), where A is the control containing cells of one strain, B is the control containing cells of the other strain, and A+B is the reaction mixture containing both cells. […]"}}, "data": [{"molecule": "B1", "values": [{"measurement": "binding by the glucosyltransferase to high molecular weight dextrans", "setting": "[1]", "result": "reduced binding"}, {"measurement": "activity gel (hydrolysis of sucrose following renaturation of an SDS-PAGE gel)", "setting": "[1]; not shown", "result": "loss of activity"}, {"measurement": "glucan binding, enhanced chemiluminescence gel", "setting": "[1]; not shown", "result": "loss of glucan binding"}, {"measurement": "inhibition of growth of Klebsiella pneumoniae", "setting": "Klebsiella pneumoniae", "result": "did not significantly inhibit growth"}, {"measurement": "Hemagglutination", "setting": "P. gingivalis; dilution 1/2", "result": "−"}, {"measurement": "Hemagglutination", "setting": "P. gingivalis; dilution 1/8", "result": "−"}, {"measurement": "Hemagglutination", "setting": "P. gingivalis; dilution 1/16", "result": "−"}, {"measurement": "Hemagglutination", "setting": "P. gingivalis; dilution 1/32", "result": "−"}, {"measurement": "Hemagglutination", "setting": "P. gingivalis; dilution 1/64", "result": "−"}, {"measurement": "Hemagglutination", "setting": "P. gingivalis; dilution 1/128", "result": "−"}, {"measurement": "Hemagglutination", "setting": "P. gingivalis; dilution 1/256", "result": "−"}, {"measurement": "Hemagglutination", "setting": "P. gingivalis; dilution 1/512", "result": "−"}, {"measurement": "binding of bacteria to urinary epithelial cells", "setting": "[2]", "result": "reduced binding"}, {"measurement": "decrease in adhesion to UECs", "setting": "[3]; asparaginase <2 units/ml", "result": 13, "unit": "%"}, {"measurement": "decrease in adhesion to UECs", "setting": "[3]; asparaginase >2 units/ml", "result": "85-90%"}, {"measurement": "prevention of adhesion to UECs", "setting": "[3]; asparaginase singly, 10 units/ml", "result": 90, "unit": "%"}, {"measurement": "reduction in adhesion to UECs", "setting": "[3]; bacteria first incubated with MUMB 50 mM, then polyphenol oxidase 141 units/ml or asparaginase 10 units/ml", "result": 50, "unit": "%"}, {"measurement": "increase in adhesion to UECs", "setting": "[3]; mannopyranoside 50 mM followed by asparaginase 10 units/ml", "result": 40, "unit": "%"}, {"measurement": "numbers of UECs with large numbers of endogenous bacteria", "setting": "[4]", "result": "little or no effect"}, {"measurement": "Percent UECs with ≧30 Bacteria Attached", "setting": "[4]; asparaginase 5 U/ml, 30 minute incubation", "result": 28, "unit": "%"}, {"measurement": "Percent UECs with ≧30 Bacteria Attached", "setting": "[4]; asparaginase 10 U/ml, 30 minute incubation", "result": 26, "unit": "%"}, {"measurement": "effects on the numbers of endogenous bacteria attached to UECs", "setting": "[4]; polyphenol oxidase 70 or 140 U/ml, asparaginase 5 or 10 U/ml, 30 minute incubation", "result": "relatively minor effects"}, {"measurement": "Absorbance (collagen)", "setting": "[5]", "result": 0.05}, {"measurement": "Absorbance (fibronectin)", "setting": "S. pyogenes; S. pyogenes M4, untreated 0.32", "result": 0.15}, {"measurement": "Absorbance (fibronectin)", "setting": "S. pyogenes; S. pyogenes M24, untreated 0.33", "result": 0.21}, {"measurement": "Absorbance (fibronectin)", "setting": "[6]", "result": 0.16}, {"measurement": "inhibition of growth of S. sobrinus", "setting": "S. sobrinus 6715", "result": "did not significantly inhibit growth"}, {"measurement": "Inhibition % of coaggregation", "setting": "[7]", "result": "i 31%"}]}]}
